Columns and labels:
[1] = biological target: MET-ECD-Fc-His (WT) (human) (UniProt P08581); assay: SPR
[2] = biological target: MET-ECD-Fc-His V370D (human) (UniProt P08581); assay: SPR

Kd [1]: 858 nM
Kd [2]: 914 nM
Substance: SP domain of HGF (β-chain) (domain or fragment)
